For twelve molecules, Mean fluorescence intensity and OD450 results are on record in patent US20210155689A1 (SHANGHAI PHARMAEXPLORER, published 2021).

The target of experiment [1] is T1, human LAG-3 (full length, on the cell surface) (human, UniProt P18627 23-525).
T1 construct: Full-length human LAG-3 expressed on cells; also called HEK293-hLAG-3; HEK293 cells transfected with LAG-3 gene
T1 sequence: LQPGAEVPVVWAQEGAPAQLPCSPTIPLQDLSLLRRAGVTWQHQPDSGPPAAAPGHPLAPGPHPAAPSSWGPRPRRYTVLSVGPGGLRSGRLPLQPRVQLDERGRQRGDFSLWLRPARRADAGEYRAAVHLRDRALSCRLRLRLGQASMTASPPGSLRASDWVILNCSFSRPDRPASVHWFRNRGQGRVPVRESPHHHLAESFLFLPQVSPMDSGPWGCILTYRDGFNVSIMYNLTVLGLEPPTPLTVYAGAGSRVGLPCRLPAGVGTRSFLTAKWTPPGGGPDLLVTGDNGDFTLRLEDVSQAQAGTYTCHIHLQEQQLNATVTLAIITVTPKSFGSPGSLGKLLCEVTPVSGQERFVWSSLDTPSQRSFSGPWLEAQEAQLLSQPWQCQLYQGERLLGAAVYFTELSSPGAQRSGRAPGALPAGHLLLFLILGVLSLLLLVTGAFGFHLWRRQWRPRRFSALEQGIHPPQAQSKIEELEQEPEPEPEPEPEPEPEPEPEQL
Description: FACS, HEK293-hLAG-3; 0.320 nM. The source says:
(§1) The pIRES plasmid with the monkey-derived full-length gene was transfected into the HEK293 cell line to construct a HEK293 stable cell line containing monkey LAG-3 (herein referred to as HEK293-cLAG-3 stable cell line). The HEK293-hLAG-3 stable cell line and HEK293-cLAG-3 stable cell line were expanded in a T-75 cell culture flask to a 90% confluence. The medium was aspirated, and the cells were washed with HBSS (Hanks' Balanced Salt Solution) 1-2 times, then treated with a enzyme-free cell dissociation fluid (Versene solution: Life technology) and the cells were collected. The cells were washed with HBSS buffer for 1-2 times. After counted, the cells were diluted with HBSS to 1-2×10⁶ cells per ml, added with 1% goat serum blocking solution, incubated on ice for 20-30 minutes, and then washed with HBSS for 2 times by centrifugation. The collected cells were suspended in the FACS buffer (HBSS+1% BSA) to 2×10⁶ cells/ml, added as 100 microliters per well to a 96-well FACS reaction plate, added with 100 microliters per well of the antibody sample to be tested, incubated on ice for 1-2 hours. The plate was washed twice with the FACS buffer by centrifugation, added with 100 microliters of fluorescent (Alexa 488)-labeled secondary antibodies per well, and incubated on ice for 0.5-1.0 hours. The plate was washed 2-3 times with FACS buffer by centrifugation, added with 100 μl fixative solution (4% Paraformaldehyde) per well to suspend the cells. 5-10 minutes later, it was washed 1-2 times with FACS buffer by centrifugation. The cells were suspended with 100 microliters of FACS buffer, FACS (FACSCalibur, BD) was used for detection and the results were analyzed.
On the technique in general: In flow cytometry, cells or beads pass a laser one at a time.

The target in experiment [2] is T2, monkey LAG-3 on cells (HEK293-cLAG-3 stable cell line) (monkey, UniProt P18627 24-525 (human entry)).
T2 construct: Full-length monkey (Chinese monkey) LAG-3 gene expressed on HEK293 cells
T2 chain: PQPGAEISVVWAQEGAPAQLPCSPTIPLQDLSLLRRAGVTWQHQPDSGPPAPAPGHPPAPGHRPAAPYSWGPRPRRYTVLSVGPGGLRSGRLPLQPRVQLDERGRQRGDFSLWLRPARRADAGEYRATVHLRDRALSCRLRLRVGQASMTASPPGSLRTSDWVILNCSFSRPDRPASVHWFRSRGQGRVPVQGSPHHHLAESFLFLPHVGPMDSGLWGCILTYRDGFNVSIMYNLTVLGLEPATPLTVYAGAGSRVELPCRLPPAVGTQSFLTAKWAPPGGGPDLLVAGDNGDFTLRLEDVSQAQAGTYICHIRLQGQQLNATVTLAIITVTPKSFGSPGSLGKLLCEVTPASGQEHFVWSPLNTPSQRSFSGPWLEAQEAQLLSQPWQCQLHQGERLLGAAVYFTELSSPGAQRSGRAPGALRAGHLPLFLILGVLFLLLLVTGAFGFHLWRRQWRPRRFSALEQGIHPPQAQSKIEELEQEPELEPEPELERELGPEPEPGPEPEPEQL
Description: FACS, HEK293-cLAG-3, antibody 0.013 nM.
From the text: as §1

Experiment [3] addresses T3, hFc tagged monkey LAG-3 protein (cLAG-3-hFc protein) (monkey; human).
T3 construct: Made in HEK293 cells; also called monkey LAG-3 extracellular domain protein; not shown: human IgG Fc fragment (hFc) of the pCpC vector
T3 chain: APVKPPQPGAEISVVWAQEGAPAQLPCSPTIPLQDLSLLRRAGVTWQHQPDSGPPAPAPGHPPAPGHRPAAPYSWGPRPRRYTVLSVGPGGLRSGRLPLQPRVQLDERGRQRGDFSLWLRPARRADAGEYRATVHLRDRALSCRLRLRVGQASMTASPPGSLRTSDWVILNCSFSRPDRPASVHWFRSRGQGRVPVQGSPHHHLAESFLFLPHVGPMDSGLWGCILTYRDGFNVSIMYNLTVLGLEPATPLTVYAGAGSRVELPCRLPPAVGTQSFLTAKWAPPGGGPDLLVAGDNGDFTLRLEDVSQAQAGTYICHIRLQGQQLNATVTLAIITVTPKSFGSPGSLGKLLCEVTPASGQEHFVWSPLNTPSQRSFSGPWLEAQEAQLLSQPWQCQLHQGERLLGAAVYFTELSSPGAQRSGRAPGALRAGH
Description: ELISA, cLAG-3-hFc coated; 0.0667 nM. The protocol:
The plate was sealed with plastic film and incubated overnight at 4° C. The plate was washed 2 times with the plate washing solution (PBS+0.01% Tween20) on the next day, and added with the blocking solution (PBS+0.01% Tween20+1% BSA) and blocked at room temperature for 1-2 hours. The blocking solution was poured out, and the plate was added with 50-100 μl of the antibody sample to be tested to each well, incubated at 37° C. for 1-2 hours, and washed 2-3 times with a plate washing solution (PBS+0.01% Tween20). HRP (horseradish peroxidase) labeled secondary antibody was added, and the plate was incubated at 37° C. for 1-2 hours, and washed 2-3 times with a plate washing solution (PBS+0.01% Tween20). 100 μl of TMB substrate was added to each well. After incubated at room temperature for 15-30 minutes, the plate was added with 100 μl of stop solution (1.0N HCl) to each well.
On the technique in general: ELISA stands for enzyme-linked immunosorbent assay.

B1: 405B8H3 (mouse antibody purified from hybridoma) (antibody, V domains shown)
VH: QVQLQQSGAELVRPGASVTLSCKASGYTFTDYEMHWVKQTPVHGLEWIGATDPETGNSAYNQKFKGKAIMTADKSSSTAYMELRSLTSEDSAVYYCISTGWNDWGQGTSLTVSS
VL: DIKMTQSPSSMYASLGERVTITCKASQDINSYLSWFQQKPGKSPKTLIYRADRLLDGVPSRFSGSGSGQDYSLTISSLEYGDMGIYYCLQYDEFPYTFGGGTKLEIK
notes: also called mAb103-405B8H3; 405B81-13
For B1, the Mean fluorescence intensity in experiment [1] turned out to be 24.7 MFI.

B2: 105F1E10 mouse-human chimeric antibody (antibody, V domains shown)
VH: EVQLQQSGPELVKPGASVKMSCRASGYTFTDFKMHWMKQSHGKSLEWIGYIAPNNGGTAYNQKFRGKATLTVNESSNTAYMELRSLTSEDSAVYYCVDWDDVDYWGQGTTLTVSS
VL: DIKMTQSPSSMYASLGERVTITCKASQDINSYLSWFQQKSGKSPKTLIYRANRLVDGVPSRFSGSGSGQDYSLTISSLEYEDMGIYYCLQYVEFPLTFGAGTKLELK
notes: also called mAb009-105F1E10
On to B2, for which the Mean fluorescence intensity in experiment [2] was determined as 2.89.

B3: 105F1E10 (LAG-3 mouse-human chimeric antibody) (antibody, V domains shown)
VH: EVQLQQSGPELVKPGASVKMSCRASGYTFTDFKMHWMKQSHGKSLEWIGYIAPNNGGTAYNQKFRGKATLTVNESSNTAYMELRSLTSEDSAVYYCVDWDDVDYWGQGTTLTVSS
VL: DIKMTQSPSSMYASLGERVTITCKASQDINSYLSWFQQKSGKSPKTLIYRANRLVDGVPSRFSGSGSGQDYSLTISSLEYEDMGIYYCLQYVEFPLTFGAGTKLELK
For the molecule B3, the OD450 in experiment [3] came out at 1 OD450.

B4: 105F1E10 (mouse antibody purified from hybridoma) (antibody, V domains shown)
VH: EVQLQQSGPELVKPGASVKMSCRASGYTFTDFKMHWMKQSHGKSLEWIGYIAPNNGGTAYNQKFRGKATLTVNESSNTAYMELRSLTSEDSAVYYCVDWDDVDYWGQGTTLTVSS
VL: DIKMTQSPSSMYASLGERVTITCKASQDINSYLSWFQQKSGKSPKTLIYRANRLVDGVPSRFSGSGSGQDYSLTISSLEYEDMGIYYCLQYVEFPLTFGAGTKLELK
notes: also called mAb009-105F1E10
Molecule B4 yielded a Mean fluorescence intensity in experiment [1] of 23.3 MFI.

B5: 405B8H3 (LAG-3 mouse-human chimeric antibody) (antibody, V domains shown)
VH: QVQLQQSGAELVRPGASVTLSCKASGYTFTDYEMHWVKQTPVHGLEWIGATDPETGNSAYNQKFKGKAIMTADKSSSTAYMELRSLTSEDSAVYYCISTGWNDWGQGTSLTVSS
VL: DIKMTQSPSSMYASLGERVTITCKASQDINSYLSWFQQKPGKSPKTLIYRADRLLDGVPSRFSGSGSGQDYSLTISSLEYGDMGIYYCLQYDEFPYTFGGGTKLEIK
notes: also called mouse-human chimeric antibody 405B8H3
The molecule B5 yielded an OD450 in experiment [3] of 1.96 OD450.

B6: 409D4E10 (LAG-3 mouse-human chimeric antibody) (antibody, V domains shown)
VH: QVQLQQSGAELVRPGASVTLSCKASGNTFTDYEMHWVKQTPVHGLEWIGATDPETDNTAYNQKFKGKAILTTDKSSSTAYMELRSLTSEDSAVYYCITSGWNDWGQGTSLTVSS
VL: DIKMTQSPSSMYASLGERVTITCKASQDINSYLSWFQQKPGKSPKTLIYRANRLLDGVPSRFSGSGSGQDYSLTISSLEYEDMGIYYCLQYNEFPYTFGGGTKLEIK
On to B6, for which, in experiment [3], the OD450 amounted to 3.05 OD450.

B7: 409B11E12 (LAG-3 mouse-human chimeric antibody) (antibody, V domains shown)
VH: QVQLQQSGAELVRPGASVTLSCKASGYTFTDYEMHWVKQTTVHGLEWIGATDPETSYSAYNQKFKGKAILTADKSSSTAYMELRSLTSEDSAVYYCIATGWNDWGQGTSLTVSS
VL: DLKMTQSPSSMYASLGERVTITCKASQDINSYLSWFQQKPGKSPKTLIYRANRLLDGVPSRFSGSGSGQDYSLTISSLEYEDMGIYYCLQYDEFPYTFGGGTKLEIK
B7 displayed an OD450 in experiment [3] of 1.91 OD450.

B8: 409B11E12 (mouse antibody purified from hybridoma) (antibody, V domains shown)
VH: QVQLQQSGAELVRPGASVTLSCKASGYTFTDYEMHWVKQTTVHGLEWIGATDPETSYSAYNQKFKGKAILTADKSSSTAYMELRSLTSEDSAVYYCIATGWNDWGQGTSLTVSS
VL: DLKMTQSPSSMYASLGERVTITCKASQDINSYLSWFQQKPGKSPKTLIYRANRLLDGVPSRFSGSGSGQDYSLTISSLEYEDMGIYYCLQYDEFPYTFGGGTKLEIK
notes: also called mAb104-409B11E12
B8 had a Mean fluorescence intensity in experiment [1] of 13.4 MFI.

B9: 409D4E10 (mouse antibody purified from hybridoma) (antibody, V domains shown)
VH: QVQLQQSGAELVRPGASVTLSCKASGNTFTDYEMHWVKQTPVHGLEWIGATDPETDNTAYNQKFKGKAILTTDKSSSTAYMELRSLTSEDSAVYYCITSGWNDWGQGTSLTVSS
VL: DIKMTQSPSSMYASLGERVTITCKASQDINSYLSWFQQKPGKSPKTLIYRANRLLDGVPSRFSGSGSGQDYSLTISSLEYEDMGIYYCLQYNEFPYTFGGGTKLEIK
notes: also called mAb112-409D4E10
B9: the Mean fluorescence intensity in experiment [1] came to 13 MFI.

B10: 556F6B8 mouse-human chimeric antibody (antibody, V domains shown)
VH: RVQLKQSGPGLVQPSQSLSITCTVSGFSLIKYGVHWVRQSPGEGLEWLGVIWRGGITDYNAAFMSRLSITKDNSKSQVFFKMNSLQADDTAIYYCAKWDGPLAMDYWGQGTSVTVSS
VL: DIVMTQSHKFLSTSVGDRVSITCKASQDVGTTVAWYQQKPGQSPKLLIYWASTRHTGVPDRFTGSGSGTDFTLTISNVQSEDLADYFCQQYSSYPYTFGGGTKLEIK
notes: also called mAb123-556F6B8; 556F8B8
In turn, B10 registered a Mean fluorescence intensity in experiment [2] of 3.46.

B11: 556F6B8 (mouse antibody purified from hybridoma) (antibody, V domains shown)
VH: RVQLKQSGPGLVQPSQSLSITCTVSGFSLIKYGVHWVRQSPGEGLEWLGVIWRGGITDYNAAFMSRLSITKDNSKSQVFFKMNSLQADDTAIYYCAKWDGPLAMDYWGQGTSVTVSS
VL: DIVMTQSHKFLSTSVGDRVSITCKASQDVGTTVAWYQQKPGQSPKLLIYWASTRHTGVPDRFTGSGSGTDFTLTISNVQSEDLADYFCQQYSSYPYTFGGGTKLEIK
notes: also called mAb123-556F6B8
For B11, in experiment [1], the Mean fluorescence intensity was determined as 16.1 MFI.

B12: 556F6B8 (LAG-3 mouse-human chimeric antibody) (antibody, V domains shown)
VH: RVQLKQSGPGLVQPSQSLSITCTVSGFSLIKYGVHWVRQSPGEGLEWLGVIWRGGITDYNAAFMSRLSITKDNSKSQVFFKMNSLQADDTAIYYCAKWDGPLAMDYWGQGTSVTVSS
VL: DIVMTQSHKFLSTSVGDRVSITCKASQDVGTTVAWYQQKPGQSPKLLIYWASTRHTGVPDRFTGSGSGTDFTLTISNVQSEDLADYFCQQYSSYPYTFGGGTKLEIK
notes: also called 556F8B8
In experiment [3], B12 returned an OD450 of 2.43 OD450.
